Measurements from patent US20030017991.

Target: APP695 with C-terminal dilysine and the mutation KM-DA594-597 to SYEA594-597, expressed in HEK 293 derivative cells, P05067
Sequence (P05067 whole entry, looked up, change not shown, tested part not stated): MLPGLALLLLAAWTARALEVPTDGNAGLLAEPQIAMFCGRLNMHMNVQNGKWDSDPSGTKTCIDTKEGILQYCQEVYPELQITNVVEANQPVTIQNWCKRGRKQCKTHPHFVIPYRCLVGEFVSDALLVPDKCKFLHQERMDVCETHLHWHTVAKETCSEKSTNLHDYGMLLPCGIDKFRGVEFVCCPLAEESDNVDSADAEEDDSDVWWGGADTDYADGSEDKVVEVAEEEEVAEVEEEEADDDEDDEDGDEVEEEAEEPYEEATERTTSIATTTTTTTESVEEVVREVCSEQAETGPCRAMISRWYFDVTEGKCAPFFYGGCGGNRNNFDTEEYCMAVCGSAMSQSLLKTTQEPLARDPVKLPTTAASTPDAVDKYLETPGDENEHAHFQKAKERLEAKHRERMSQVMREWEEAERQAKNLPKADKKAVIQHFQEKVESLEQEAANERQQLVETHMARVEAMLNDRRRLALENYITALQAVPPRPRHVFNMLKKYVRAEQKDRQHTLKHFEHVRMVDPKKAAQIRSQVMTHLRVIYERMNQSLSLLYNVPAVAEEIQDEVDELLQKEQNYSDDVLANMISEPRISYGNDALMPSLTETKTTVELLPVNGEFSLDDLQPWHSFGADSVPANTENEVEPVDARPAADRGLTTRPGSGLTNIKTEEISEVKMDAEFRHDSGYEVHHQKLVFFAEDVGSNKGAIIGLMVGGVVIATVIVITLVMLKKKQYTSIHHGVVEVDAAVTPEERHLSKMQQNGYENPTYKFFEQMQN

B1: Hu-Asp2 expressed in a stable HEK-293 derivative cell line (higher levels of Hu-Asp2) (protein)
chain: ETDEEPEEPGRRGSFVEMVDNLRGKSGQGYYVEMTVGSPPQTLNILVDTGSSNFAVGAAPHPFLHRYYQRQLSSTYRDLRKGVYVPYTQGKWEGELGTDLVSIPHGPNVTVRANIAAITESDKFFINGSNWEGILGLAYAEIARPDDSLEPFFDSLVKQTHVPNLFSLHLCGAGFPLNQSEVLASVGGSMIIGGIDHSLYTGSLWYTPIRREWYYEVIIVRVEINGQDLKMDCKEYNYDKSIVDSGTTNLRLPKKVFEAAVKSIKAASSTEKFPDGFWLGEQLVCWQAGTTPWNIFPVISLYLMGEVTNQSFRITILPQQYLRPVEDVATSQDDCYKFAISQSSTGTVMGAVIMEGFYVVFDRARKRIGFAVSACHVHDEFRTAAVEGPFVTLDMEDCGYNIPQTDESTLMTIAYVMAAICALFMLPLCLMVCQWRCLRCLRQQHDDFADDISLLK
- production of the β-secretase cleavage product CTF-99 (Western blot with antibody C8): both mutant APP variants were proficiently cleaved by Asp2
